This note sets out measurements from patent US20240092867A1 (UNIVERSITY OF CHICAGO, published 2024).

Sequences and labels used below:
B1: placental growth factor (PlGF)-1 (ligand, human, UniProt P49763-2 19-149, looked up)
chain: LPAVPPQQWALSAGNGSSEVEVVPFQEVWGRSYCRALERLVDVVSEYPSEVEHMFSPSCVSLLRCTGCCGDENLHCVPVETANVTMQLLKIRSGDRPSYVELTFSQHVRCECRPLREKMKPERCGDAVPRR
notes: mature; Purchased in mature form

One test addresses T1, laminin-111 (human, UniProt P25391 18-3075; P07942 22-1786; P11047 34-1609).
T1 construct: Full-length recombinant human laminin isoform (BioLamina); Chain composition is read from the isoform name
In words: ELISA, GF coated, laminin 10 nM.

The next test deals with T2, laminin-211 (human, UniProt P24043 23-3122; P07942 22-1786; P11047 34-1609).
T2 construct: Full-length recombinant human laminin isoform (BioLamina); chains read from the isoform name
As to the kind of experiment: ELISA, GF coated, laminin 10 nM.

The target of a further test is T3, laminin-332 (human, UniProt Q16787 28-1724; Q13751 18-1172; Q13753 22-1193, limits assumed).
T3 construct: Full-length recombinant human laminin isoform (BioLamina); chains read from the isoform name
In words: ELISA, GF coated, laminin 10 nM. (In general: An ELISA detects its analyte on a solid surface through an enzyme-linked reagent.)

For another test, the target named is T4, laminin-411 (human, UniProt Q16363 25-1823; P07942 22-1786; P11047 34-1609).
T4 construct: Full-length recombinant human laminin isoform (BioLamina); chains read from the isoform name
In words: ELISA, GF coated, laminin 10 nM.

The target of a further test is T5, laminin-421 (human, UniProt Q16363 25-1823; P55268 33-1798; P11047 34-1609).
T5 construct: Full-length recombinant human laminin isoform (BioLamina); chains read from the isoform name
As to the kind of experiment: ELISA, GF coated, laminin 10 nM.

For another test, the target named is T6, laminin-511 (human, UniProt O15230 36-3695; P07942 22-1786; P11047 34-1609).
T6 construct: Full-length recombinant human laminin isoform (BioLamina); chains read from the isoform name
In words: ELISA, GF coated, laminin 10 nM.

In another test the target is T7, laminin-521 (human, UniProt O15230 36-3695; P55268 33-1798; P11047 34-1609).
T7 construct: Full-length recombinant human laminin isoform (BioLamina); chains read from the isoform name
As to the kind of experiment: ELISA, GF coated, laminin 10 nM.

For test [1], the target named is T8, recombinant laminin α3 2928-3150 protein (linker domain and LG4 domain) (human, UniProt Q16787 2928-3150).
T8 construct: range 2928-3150; Made in HEK-293F cells; also called laminin alpha 3 LG domain recombinant protein
T8 sequence: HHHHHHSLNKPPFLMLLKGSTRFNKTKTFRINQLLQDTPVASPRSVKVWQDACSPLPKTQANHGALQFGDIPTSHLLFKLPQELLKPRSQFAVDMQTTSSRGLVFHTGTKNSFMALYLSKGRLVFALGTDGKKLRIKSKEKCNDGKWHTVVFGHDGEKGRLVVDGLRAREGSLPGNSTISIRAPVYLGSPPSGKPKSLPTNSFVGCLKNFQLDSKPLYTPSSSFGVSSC
As to the kind of experiment: ELISA, LG domain protein coated. The procedure: Affinity of GFs against recombinant laminin LG domains. ELISA plates were coated with 1 μg/mL (A) α3₂₉₂₈₋₃₁₅₀, (B) α4₈₂₆₋₁₈₁₆, or (C) α5₃₀₂₆₋₃₄₈₂ and further incubated with 1 μg/mL of VEGF-A165, VEGF-A121, PlGF-2, PlGF-1, PDGF-BB, or FGF-2 solution. Bound GFs were detected using a specific antibody for each GF (n=4, mean±SEM). Statistical analyses were done using the Mann-Whitney U test by comparing the signals obtained from the laminin domain- and the BSA-coated wells. *p<0.05, **p<0.01. […] A SPR chip was functionalized with the laminin α3₂₉₂₈₋₃₁₅₀ recombinant protein (˜1000 RU), and each GF was flowed over the chip at indicated concentrations. Curves represent the specific responses (in RU) to laminin. Experimental curves were fitted with Langmuir binding kinetics.
(§1) ELISA tests were performed as described above. […] 1 μg/mL of BSA served as non-binding protein control. After blocking with 2% BSA PBS-0.05% Tween 20 (PBS-T) solution, 1 μg/mL of the recombinant human proteins (VEGF-A121, VEGF-A165, PlGF-1, PlGF-2, PDGF-BB or FGF-2) or 10 μg/mL of biotinylated heparin (Sigma-Aldrich) were added. Bound GF was detected with biotinylated antibodies for human VEGF, PlGF, PDGF-BB, or FGF-2 (R&D Systems). The antibodies were detected by streptavidin-HRP (R&D Systems).

Another test deals with T9, human plasma-derived vWF (human, UniProt P04275 764-2813).
T9 construct: mature; also called plasma-derived purified vWF; von Willebrand factor
As to the kind of experiment: ELISA, GF coated 50 nM, vWF 1 µg/mL.

The target of test [2] is T10, recombinant human vWF A1 domain (human, UniProt P04275 1261-1468, limits assumed).
T10 construct: domain: A1; also called vWF A1 recombinant protein; recombinant A1 domain
As to the kind of experiment: ELISA; recombinant vWF A1 domain coated (10 µg/mL, legend paragraph 67), GF in solution, detected with anti-PlGF antibody [panel B]. The method, then:
FIGS. 18A-C. […] Bound GFs were detected using a specific antibody for each GF (n=4, mean±SD). Statistical analyses were done using ANOVA with Tukey's test or Student's t-test. *p<0.05, **p<0.01.
ELISA tests were performed as described above. […] After blocking with 2% BSA solution containing PBS-T, 1 μg/mL of the recombinant human proteins VEGF-A121, VEGF-A165, PlGF-1, PlGF-2, PDGF-BB, FGF-2, CXCL-12α and CXCL-12γ were added. 1 μg/mL of BSA served as non-binding protein control. Bound GF or chemokine was detected with biotinylated antibodies for human VEGF-A, PlGF, PDGF-BB, FGF-2, or CXCL-12 (R & D Systems). The antibodies were detected by streptavidin-HRP (R & D Systems). Color development and the absorbance measurement were done as described above.

For the next test, the target named is T11, recombinant human BMP-2 (human, UniProt P12643 283-396).
T11 construct: also called rhBMP-2
In words: ELISA, rhBMP-2 coated 50 nM, binder 50 nM.

The target in a further test is T12, bovine type I collagen (bovine, UniProt P02453 178-1191; P02465 89-1102).
T12 construct: PureCol, Advanced BioMatrix; coated on the plate; also called collagen I; PureCol
As to the kind of experiment: ELISA, collagen I coated, 0.01-30 nM binder. The procedure: ELISA plates (NUNC MaxiSorp, ThermoFisher Scientific) were coated overnight with 10 μg/mL of bovine type I collagen (PureCol, Advanced BioMatrix, San Diego CA, USA) at room temperature. The plate was further blocked using 2% bovine serum albumine (BSA) for 2 h at room temperature. […] The plate was washed thrice in PBST, and an horseradish peroxidase-conjugated anti-human Fab antibody (Jackson ImmunoResearch,) was used to detect bound FabCol variants. […] Absorbance at 450 nm was read using […], and corrected using the absorbance at 570 nm. Curve fits and dissociation constant KD were computed using Prism (GraphPad Software Inc., USA).

In test [3] the target is B1. In words: ELISA; growth factors coated at 100 nM, FabCol variants at 100 nM in solution, HRP-anti-human Fab [panel F].
The target of test [4] is T13, placental growth factor (PlGF)-2 (human, UniProt P49763-3 19-170).
T13 construct: mature; Purchased in mature form
T13 sequence (looked up): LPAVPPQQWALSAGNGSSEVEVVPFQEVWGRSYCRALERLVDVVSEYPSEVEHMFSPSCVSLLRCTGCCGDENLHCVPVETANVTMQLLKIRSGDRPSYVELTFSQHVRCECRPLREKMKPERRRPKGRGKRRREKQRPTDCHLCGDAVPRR
The description is as above.

In test [5] the target is T14, platelet-derived growth factor (PDGF)-BB (human, UniProt P01127 82-190).
T14 construct: mature; Purchased in mature form
Described as above.

In test [6] the target is T15, vascular endothelial growth factor (VEGF)-A165 (human, UniProt P15692-4 27-191).
T15 construct: mature; Purchased in mature form, not glycosylated
The description is as above.

Test [7] has as its target T16, vascular endothelial growth factor (VEGF)-A121 (human, UniProt P15692-9 27-147).
T16 construct: mature; Purchased in mature form, not glycosylated
T16 sequence (looked up): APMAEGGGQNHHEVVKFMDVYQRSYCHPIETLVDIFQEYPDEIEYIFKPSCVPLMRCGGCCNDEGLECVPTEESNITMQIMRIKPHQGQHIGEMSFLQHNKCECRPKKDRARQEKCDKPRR
As to the kind of experiment: ELISA, peptide coated. A digest of the protocol:
(§2)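 Wells coated with 10 μg/mL laminin α3/α4/α5 LG-domain peptides, BSA-coated wells as non-binding control, blocked with 2% BSA PBS-T. Recombinant human GFs added at 1 μg/mL; bound GF detected with GF-specific biotinylated antibody plus streptavidin-HRP (n=4, mean±SEM).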

The target of test [8] is B1. In words: ELISA, peptide coated. In a few lines: as §2
Test [9] deals with T15, vascular endothelial growth factor …. In words: ELISA, peptide coated, GF 1 µg/mL. In a few lines:
as §2

The target of test [10] is T13, placental growth factor (PlGF)-2. As to the kind of experiment: ELISA; peptide coated (10 µg/mL, legend paragraph 53), GF in solution, BSA-coated wells as control [panel D]. The method, then: (§3) (A) The location of laminin-derived peptides in the LG domain of laminin α3, α4, and α5 chains. (B-F) Affinity of heparin and GFs against chemically synthesized peptides derived from the LG domain of laminin α3, α4, and α5 chains. ELISA plates were coated with 10 μg/mL laminin peptide and further incubated with (B) biotinylated heparin, (C) VEGF-A165 and VEGF-A121, (D) PlGF-2 and PlGF-1, (E) PDGF-BB, or (F) FGF-2. Concentrations were 1 μg/mL for GFs and 10 μg/mL for heparin. Bound heparin was detected with streptavidin, and bound GFs with a specific antibody for each GF (n=4, mean±SEM). Statistical analyses were done using the Mann-Whitney U test by comparing the signals obtained from the laminin peptide- and the BSA-coated wells. *p<0.05, **p<0.01.
as §1

For test [11], the target named is T14, platelet-derived growth factor (PDGF)-BB. As to the kind of experiment: ELISA; peptide coated (10 µg/mL, legend paragraph 53), GF in solution, BSA-coated wells as control [panel E]. The method, then: as §3, §1

T14 sequence (P01127 82-190): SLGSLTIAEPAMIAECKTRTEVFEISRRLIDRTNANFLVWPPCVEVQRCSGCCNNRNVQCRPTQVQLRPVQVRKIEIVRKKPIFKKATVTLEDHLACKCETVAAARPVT
T12 sequence (P02453 178-1191, chain 1 of 2): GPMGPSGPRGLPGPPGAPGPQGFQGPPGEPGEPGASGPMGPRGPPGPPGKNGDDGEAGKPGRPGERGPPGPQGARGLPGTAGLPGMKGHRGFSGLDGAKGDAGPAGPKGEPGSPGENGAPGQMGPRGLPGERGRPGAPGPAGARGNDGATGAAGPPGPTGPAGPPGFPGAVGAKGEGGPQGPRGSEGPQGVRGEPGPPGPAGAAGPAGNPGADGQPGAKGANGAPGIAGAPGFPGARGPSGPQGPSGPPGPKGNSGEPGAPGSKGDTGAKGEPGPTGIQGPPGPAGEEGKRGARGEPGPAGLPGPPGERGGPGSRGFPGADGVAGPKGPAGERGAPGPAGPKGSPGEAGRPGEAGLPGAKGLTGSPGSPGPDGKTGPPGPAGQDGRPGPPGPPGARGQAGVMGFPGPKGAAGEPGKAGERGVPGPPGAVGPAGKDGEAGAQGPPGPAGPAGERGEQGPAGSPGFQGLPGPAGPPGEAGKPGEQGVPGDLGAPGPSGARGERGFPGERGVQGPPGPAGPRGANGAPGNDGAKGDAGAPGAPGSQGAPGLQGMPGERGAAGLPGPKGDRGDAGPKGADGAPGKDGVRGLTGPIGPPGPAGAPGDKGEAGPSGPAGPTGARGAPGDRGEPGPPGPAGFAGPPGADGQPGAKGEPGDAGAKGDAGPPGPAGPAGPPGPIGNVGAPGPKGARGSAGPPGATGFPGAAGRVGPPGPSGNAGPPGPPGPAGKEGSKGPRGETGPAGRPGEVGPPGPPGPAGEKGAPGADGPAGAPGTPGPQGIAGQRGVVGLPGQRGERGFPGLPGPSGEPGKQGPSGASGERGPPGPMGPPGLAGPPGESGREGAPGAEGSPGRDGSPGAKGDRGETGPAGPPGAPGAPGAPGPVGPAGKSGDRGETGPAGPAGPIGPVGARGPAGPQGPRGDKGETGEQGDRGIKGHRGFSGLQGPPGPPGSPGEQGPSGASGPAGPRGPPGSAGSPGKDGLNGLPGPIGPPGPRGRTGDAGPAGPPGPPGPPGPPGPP
T12 sequence (P02465 89-1102, chain 2 of 2): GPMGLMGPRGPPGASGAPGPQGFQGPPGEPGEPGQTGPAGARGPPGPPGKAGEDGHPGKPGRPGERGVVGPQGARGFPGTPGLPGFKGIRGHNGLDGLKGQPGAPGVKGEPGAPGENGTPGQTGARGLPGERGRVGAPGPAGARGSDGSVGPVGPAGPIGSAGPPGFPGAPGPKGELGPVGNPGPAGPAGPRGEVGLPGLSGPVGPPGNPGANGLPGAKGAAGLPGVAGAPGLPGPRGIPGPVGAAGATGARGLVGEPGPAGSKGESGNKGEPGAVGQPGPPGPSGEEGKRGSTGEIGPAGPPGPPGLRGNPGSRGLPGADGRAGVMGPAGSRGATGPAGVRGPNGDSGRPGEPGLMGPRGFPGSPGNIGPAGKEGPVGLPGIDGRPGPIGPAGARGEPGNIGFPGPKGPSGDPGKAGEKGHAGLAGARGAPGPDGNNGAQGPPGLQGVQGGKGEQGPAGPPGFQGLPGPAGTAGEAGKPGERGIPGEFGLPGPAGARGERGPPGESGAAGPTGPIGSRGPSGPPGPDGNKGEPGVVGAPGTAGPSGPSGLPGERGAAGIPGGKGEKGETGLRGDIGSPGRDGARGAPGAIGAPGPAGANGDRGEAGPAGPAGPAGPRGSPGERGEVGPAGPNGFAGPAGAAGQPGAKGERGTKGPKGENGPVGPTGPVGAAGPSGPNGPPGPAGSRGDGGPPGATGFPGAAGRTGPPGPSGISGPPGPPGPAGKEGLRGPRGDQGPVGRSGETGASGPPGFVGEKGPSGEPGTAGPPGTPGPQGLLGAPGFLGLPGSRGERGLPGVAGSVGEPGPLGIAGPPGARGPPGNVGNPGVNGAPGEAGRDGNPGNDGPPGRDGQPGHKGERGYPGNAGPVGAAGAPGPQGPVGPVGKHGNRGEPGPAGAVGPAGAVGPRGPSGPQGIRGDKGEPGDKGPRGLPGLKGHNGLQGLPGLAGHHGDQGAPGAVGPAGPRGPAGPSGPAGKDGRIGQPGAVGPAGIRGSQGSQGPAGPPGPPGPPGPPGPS
T11 sequence (P12643 283-396 limits assumed): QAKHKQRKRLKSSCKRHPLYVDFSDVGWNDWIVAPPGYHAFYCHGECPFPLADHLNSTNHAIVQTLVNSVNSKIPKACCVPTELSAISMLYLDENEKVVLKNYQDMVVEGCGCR
Method for recombinant human BMP-2: ELISA plates (NUNC MaxiSorp) were coated with 50 nM of recombinant human BMP-2 (CHO produced, R&D Systems, Minneapolis MN, USA) overnight at room temperature.

For B1, the binding result with laminin-111, with laminin-211, with laminin-332, with laminin-411, in the test with laminin-421 and with laminin-511 was “no binding (tested: A450 0.1)” each time. Also, the binding result in the test with laminin-521 is “no binding (tested: A450 0.1)”; in [1], “no binding (tested: 1 µg/mL)”; with human plasma-derived vWF, “no binding”; in [2] it was “no binding (tested: 1 µg/mL PlGF-1 (single concentration))”.

B2: FabCol-LamLG4 recombinant fusion protein (Fab)
light: EIVLTQSPGTLSLSPGERATLSCRASQSVSSSYLAWYQQKPGQAPRLLIYGASSRATGIPDRFSGSGSGTDFTLTISRLEPEDFAVYYCQQAIGFPQTFGQGTKVEIKRTVAAPSVFIFPPSDEQLKSGTASVVCLLNNFYPREAKVQWKVDNALQSGNSQESVTEQDSKDSTYSLSSTLTLSKADYEKHKVYACEVTHQGLSSPVTKSFNRGEC
heavy: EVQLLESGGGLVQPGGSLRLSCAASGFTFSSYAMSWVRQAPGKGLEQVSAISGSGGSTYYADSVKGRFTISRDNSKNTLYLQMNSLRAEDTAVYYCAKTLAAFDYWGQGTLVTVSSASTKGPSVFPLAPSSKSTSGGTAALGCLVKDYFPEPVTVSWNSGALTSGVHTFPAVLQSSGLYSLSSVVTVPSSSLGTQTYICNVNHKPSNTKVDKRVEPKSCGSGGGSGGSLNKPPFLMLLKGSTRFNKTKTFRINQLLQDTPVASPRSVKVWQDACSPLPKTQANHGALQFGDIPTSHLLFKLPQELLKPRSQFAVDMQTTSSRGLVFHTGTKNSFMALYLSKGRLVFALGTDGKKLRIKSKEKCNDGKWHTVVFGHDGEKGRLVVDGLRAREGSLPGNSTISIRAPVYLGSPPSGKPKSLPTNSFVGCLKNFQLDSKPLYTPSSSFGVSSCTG
A word on the Kd: it is the equilibrium constant for the complex coming apart. High values mean a looser complex, low ones a tighter complex. For the molecule B2, the binding result in the test with recombinant human BMP-2 was “binds”; in test [3] it was “no binding (tested: 100 nM (single concentration))”; in test [4], “binds”; in test [5], “binds”; in test [6], “binds”. Further, the equilibrium dissociation constant (Kd) with bovine type I collagen was around 2.3 nM.

As for KNSFMALYLSKGR (Chemically synthesized (Genscript)) [laminin α3 3031-3043 peptide (LG4)], the binding result in test [7] is listed as “no binding (tested: 1 µg/mL)”; in [8], “no binding (tested: 1 µg/mL)”; in [9], “binds”; in [10], “no binding (tested: 1 µg/mL PlGF-2 (single concentration))”; in test [11] it was “no binding (tested: 1 µg/mL PDGF-BB (single concentration))”.
